Molecular target: VemH (Streptomyces venezuelae ATCC 10712)

VemG (enzyme) was tested. Which apparent Kd from enzyme activity: initial velocities of venemycin production (HPLC) at constant 0.2 µM VemH and 0.1–8.0 µM VemG, fit with a quadratic binding equation did it give?
Its apparent Kd from enzyme activity: initial velocities of venemycin production (HPLC) at constant 0.2 µM VemH and 0.1–8.0 µM VemG, fit with a quadratic binding equation is 5.1 µM.

— article PMC6941969
